Eight molecules from patent US20200115447A1 (Chugai, published 2020) can be followed below.

Experiment [1] deals with T1, soluble human IL-6 receptor (human, UniProt P08887 20-357).
T1 construct: also called hsIL-6R
T1 sequence: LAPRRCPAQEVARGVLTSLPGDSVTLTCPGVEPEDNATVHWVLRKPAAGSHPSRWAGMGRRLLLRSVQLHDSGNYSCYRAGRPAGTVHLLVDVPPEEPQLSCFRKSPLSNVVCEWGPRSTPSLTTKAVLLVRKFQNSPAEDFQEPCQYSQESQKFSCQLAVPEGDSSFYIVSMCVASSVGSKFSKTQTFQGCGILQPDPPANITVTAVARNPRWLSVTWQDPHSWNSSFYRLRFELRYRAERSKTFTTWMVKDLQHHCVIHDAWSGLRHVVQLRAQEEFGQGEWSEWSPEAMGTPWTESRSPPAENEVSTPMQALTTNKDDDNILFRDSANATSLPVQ
The experiment in a line: SPR (Biacore T100), antibody captured via protein A/G on a CM5 chip, human IL-6 receptor injected for 3 min, 1.2 mM CaCl2, pH 7.4, 37 C.
Experimental: Interaction analyses were performed in a solution with a calcium ion concentration of 1.2 mM for the high calcium ion concentration condition or 3 μM for the low calcium ion concentration condition. A suitable amount of protein A/G (Invitrogen) was immobilized onto a Sensor chip CM5 (GE Healthcare) by the amine coupling method, and then antibodies of interest were captured onto the chips. Two types of buffers, 20 mM ACES, 150 mM NaCl, 0.05% (w/v) Tween 20, 1.2 mM CaCl₂ (pH 7.4) or 20 mM ACES, 150 mM NaCl, 0.05% (w/v) Tween 20, 3 μM CaCl₂ (pH 7.4), were used as the running buffer. […] All measurements were taken at 37° C.
Then, 10 mM glycine-HCl (pH 1.5) was injected at a flow rate of 30 μL/min for 30 seconds to regenerate the sensor chip.

The target in experiment [2] is T1, soluble human IL-6 receptor. Briefly: SPR (Biacore T100), about 300 RU of antibody captured via protein A/G on a CM5 chip, human IL-6 receptor injected for 3 min, pH 7.4, 1.2 mM CaCl2, 37 C.
Experimental: The interaction for the antigen-antibody reaction was analyzed in solutions at pH 7.4 and pH 6.0, corresponding to a neutral pH and acidic pH conditions, respectively. An appropriate amount of Protein A/G (Invitrogen) was immobilized onto a Sensor chip CM5 (GE Healthcare) by an amino coupling method, and about 300 RU each of antibodies of interest were captured onto the chip. The two types of running buffers used were: 20 mM ACES/150 mM NaCl/0.05% (w/v) Tween20/1.2 mM CaCl₂ (pH 7.4); and 20 mM ACES/150 mM NaCl/0.05% (w/v) Tween20/1.2 mM CaCl₂ (pH 6.0). […] All measurements were carried out at 37° C.
Then, 10 mM glycine-HCl (pH 1.5) was injected at a flow rate of 30 μl/min for 30 seconds to regenerate the sensor chip.
In experiment [3] the target is T2, mFcγRI extracellular domain with C-terminal His-tag (mouse, UniProt P26151 25-297).
T2 construct: extracellular domain; also called mouse FcγRI
T2 sequence (looked up): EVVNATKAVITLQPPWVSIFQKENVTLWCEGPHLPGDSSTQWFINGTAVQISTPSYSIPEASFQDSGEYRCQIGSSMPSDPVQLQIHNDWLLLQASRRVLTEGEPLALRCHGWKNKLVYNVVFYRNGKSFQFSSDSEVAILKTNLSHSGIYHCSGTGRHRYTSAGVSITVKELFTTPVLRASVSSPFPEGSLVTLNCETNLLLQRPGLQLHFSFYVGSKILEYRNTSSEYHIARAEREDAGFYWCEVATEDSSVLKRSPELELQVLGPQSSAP
The experiment in a line: Biacore SPR, antibody captured on Protein L, FcγR extracellular domain as analyte, 25 C, 1:1 Langmuir fit.
Experimental: (§1) Analysis of interaction between each of the altered antibodies and the extracellular domain of the Fcγ receptor prepared as mentioned above was carried out using Biacore T100 (GE Healthcare), Biacore T200 (GE Healthcare), Biacore A100, and Biacore 4000. HBS-EP+(GE Healthcare) was used for the running buffer, and the interactions were measured with a measurement temperature at 25° C. Chips produced by immobilizing Protein L (ACTIGEN or BioVision) by the amine coupling method to a Series S sensor Chip CM5 (GE Healthcare) or Series S sensor Chip CM4 (GE Healthcare) were used.
(§2) The KD values of each of the altered antibodies for the extracellular domain of the Fcγ receptor were calculated according to the following kinetic analysis method.

Experiment [4] deals with T3, mFcγRII extracellular domain with C-terminal His-tag (mouse, UniProt P08101 30-210).
T3 construct: extracellular domain; also called mouse FcγRII
T3 sequence (looked up): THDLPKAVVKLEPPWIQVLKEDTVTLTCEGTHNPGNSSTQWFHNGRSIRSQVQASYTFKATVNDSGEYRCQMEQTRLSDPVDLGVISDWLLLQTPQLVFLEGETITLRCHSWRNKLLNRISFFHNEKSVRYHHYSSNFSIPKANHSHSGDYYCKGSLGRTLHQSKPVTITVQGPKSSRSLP
The experiment is described as above.
Experimental: as §1, §2

For experiment [5], the target named is T4, mFcγRIII extracellular domain with C-terminal His-tag (mouse, UniProt P08508 31-215).
T4 construct: extracellular domain; also called mouse FcγRIII
T4 sequence (looked up): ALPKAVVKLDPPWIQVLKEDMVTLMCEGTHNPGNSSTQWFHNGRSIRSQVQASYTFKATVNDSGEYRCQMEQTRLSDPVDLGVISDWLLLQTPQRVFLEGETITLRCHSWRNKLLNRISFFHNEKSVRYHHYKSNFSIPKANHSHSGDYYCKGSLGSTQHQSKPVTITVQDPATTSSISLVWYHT
Described as above.
Experimental: as §1, §2

The target in experiment [6] is T5, mFcγRIV extracellular domain with C-terminal His-tag (mouse).
T5 construct: extracellular domain; also called mouse FcγRIV
T5 sequence (A0A0B4J1G0 21-203, looked up): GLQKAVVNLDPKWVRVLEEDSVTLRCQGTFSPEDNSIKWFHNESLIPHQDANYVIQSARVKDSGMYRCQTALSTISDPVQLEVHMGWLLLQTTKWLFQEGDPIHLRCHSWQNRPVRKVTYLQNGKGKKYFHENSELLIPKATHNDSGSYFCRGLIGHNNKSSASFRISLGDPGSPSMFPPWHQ
The experiment is described as above.
Experimental: as §1, §2

A further experiment concerns the target T6, mouse FcRn (mouse, UniProt Q61559 22-297; P01887 21-119, limits assumed).
T6 sequence (looked up) 1: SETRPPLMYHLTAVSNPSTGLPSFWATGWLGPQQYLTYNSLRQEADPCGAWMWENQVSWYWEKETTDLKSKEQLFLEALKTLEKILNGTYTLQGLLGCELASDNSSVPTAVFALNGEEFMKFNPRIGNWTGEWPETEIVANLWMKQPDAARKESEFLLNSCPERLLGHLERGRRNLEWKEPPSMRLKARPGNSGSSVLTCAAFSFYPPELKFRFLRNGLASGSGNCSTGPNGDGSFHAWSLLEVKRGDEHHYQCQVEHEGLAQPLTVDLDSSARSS
T6 sequence (looked up) 2: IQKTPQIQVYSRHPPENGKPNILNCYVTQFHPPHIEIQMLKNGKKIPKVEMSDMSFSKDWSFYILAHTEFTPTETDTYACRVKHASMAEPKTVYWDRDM
The experiment in a line: Biacore SPR, mouse FcRn, pH 7.0.

B1: Tocilizumab (antibody, human IgG1, kappa, V domains shown)
VH: QVQLQESGPGLVRPSQTLSLTCTVSGYSITSDHAWSWVRQPPGRGLEWIGYISYSGITTYNPSLKSRVTMLRDTSKNQFSLRLSSVTAADTAVYYCARSLARTTAMDYWGQGSLVTVSS
VL: DIQMTQSPSSLSASVGDRVTITCRASQDISSYLNWYQQKPGKAPKLLIYYTSRLHSGVPSRFSGSGSGTDFTFTISSLQPEDIATYYCQQGNTLPYTFGQGTKVEIKR
notes: also called anti-IL-6R antibody (tocilizumab); control antibody
For B1, the binding result in experiment [1] was “binds”.

B2: 6RC1IgG_019 (antibody, V domains shown)
VH: EVQLVQSGAEVKKPGSSVKVSCKASGGTFSSYAISWVRQAPGQGLEWMGGIIPIFGTANYAQKFQGRVTITADESTSTAYMELSSLRSEDTAVYYCARDRGSGFNWGNYAFDIWGQGFSVTVSS
VL: DIQMTQSPSSLSASVGDRVTITCRASQSIEDDLAWYQQKPGKAPKLLIYEASNLQSGVPSRFSGSGSGTDFTLTISSLQPEDFATYYCQQYDRYPYTFGQGTKVEIKR
As for B2, the binding result in experiment [1] is “binds”.

B3: 6RpH#02 (antibody, human IgG1, kappa, V domains shown)
VH: QVQLVQSGAEVKKPGSSVKVSCKASGGTFSSYAISWVRQAPGQGLEWMGGIIPIFGTANYAQKFQGRVTITADESTSTAYMELSSLRSEDTAVYYCMINGVWEGGMDVWGQGTTVTVSS
VL: DIQMTQSPSSLSASVGDRVTITCRASQSIHSHLNWYQQKPGKAPKLLIYHASKLQSGVPSRFSGSGSGTDFTLTISSLQPEDFATYYCQQHGNSPLTFGQGTKVEIKR
Regarding B3, in experiment [2], the binding result is given as “binds”.

B4: 6RC1IgG_010 (antibody, V domains shown)
VH: QVQLVQSGAEVKKPGSSVKVSCKASGGTFSSYAISWVRQAPGQGLEWMGGIIPIFGTANYAQKFQGRVTITADESTSTAYMELSSLRSEDTAVYYCARAAFLEWPIWGSEYFQHWGQGTLVTVSS
VL: DIQMTQSPSSLSASVGDRVTITCRASQSIEDDLAWYQQKPGKAPKLLIYHASSLQSGVPSRFSGSGSGTDFTLTISSLQPEDFATYYCQQRDSYPLTFGQGTKVEIKR
For B4, in experiment [1], the binding result was “binds”.

B5: 6RC1IgG_012 (antibody, V domains shown)
VH: QVQLVQSGAEVKKPGASVKVSCKASGYTFTSYGISWVRQAPGQGLEWMGWISAYNGNTNYAQKLQGRVTMTTDTSTSTAYMELRSLRSDDTAVYYCARATYYYDSSAPAFDIWGQGTMVTVSS
VL: DIQMTQSPSSLSASVGDRVTITCRASQSIEDDLAWYQQKPGKAPKLLIYEASTLQSGVPSRFSGSGSGTDFTLTISSLQPEDFATYYCQQHDDSPLTFGQGTKVEIKR
B5: the binding result in experiment [1] is given as “binds”.

B6: 6RpH#01 (antibody, human IgG1, kappa, V domains shown)
VH: EVQLVQSGAEVKKPGSSVKVSCKASGGTFSSYAISWVRQAPGQGLEWMGGIIPIFGTANYAQKFQGRVTITADESTSTAYMELSSLRSEDTAVYYCARASIYCSSTSCYEPPYYYYMDVWGKGTMVTVSS
VL: DIQMTQSPSSLSASVGDRVTITCRASQSISSHLAWYQQKPGKAPKLLIYAASHLQSGVPSRFSGSGSGTDFTLTISSLQPEDFATYYCQQSHNYPLTFGQGTKVEIKR
Take B6: the binding result in experiment [2] is “binds”.

B7: Fv4-mIgG2a (antibody)
heavy: QVQLQESGPGLVKPSETLSLTCAVSGHSISHDHAWSWVRQPPGEGLEWIGFISYSGITNYNPSLQGRVTISRDNSKNTLYLQMNSLRAEDTAVYYCARSLARTTAMDYWGEGTLVTVSSAKTTAPSVYPLAPVCGDTTGSSVTLGCLVKGYFPEPVTLTWNSGSLSSGVHTFPAVLQSDLYTLSSSVTVTSSTWPSQSITCNVAHPASSTKVDKKIEPRGPTIKPCPPCKCPAPNLLGGPSVFIFPPKIKDVLMISLSPIVTCVVVDVSEDDPDVQISWFVNNVEVHTAQTQTHREDYNSTLRVVSALPIQHQDWMSGKEFKCKVNNKDLPAPIERTISKPKGSVRAPQVYVLPPPEEEMTKKQVTLTCMVTDFMPEDIYVEWTNNGKTELNYKNTEPVLDSDGSYFMYSKLRVEKKNWVERNSYSCSVVHEGLHNHHTTKSFSRTPGK
light: DIQMTQSPSSLSASVGDSVTITCQASTDISSHLNWYQQKPGKAPELLIYYGSHLLSGVPSRFSGSGSGTDFTFTISSLEAEDAATYYCGQGNRLPYTFGQGTKVEIERADAAPTVSIFPPSSEQLTSGGASVVCFLNNFYPKDINVKWKIDGSERQNGVLNSWTDQDSKDSTYSMSSTLTLTKDEYERHNSYTCEATHKTSTSPIVKSFNRNEC
notes: VH3-mIgG2a with VL3-mCK; copies: 2 + 2
Consider B7, for which the Kd in experiment [3] turned out to be 3.9 nM; in experiment [4], 480 nM; in experiment [5], 45 nM; in experiment [6] it was 3.2 nM.

B8: Fv4-mFa30 (antibody, mouse IgG2a, kappa)
heavy: QVQLQESGPGLVKPSETLSLTCAVSGHSISHDHAWSWVRQPPGEGLEWIGFISYSGITNYNPSLQGRVTISRDNSKNTLYLQMNSLRAEDTAVYYCARSLARTTAMDYWGEGTLVTVSSAKTTAPSVYPLAPVCGDTTGSSVTLGCLVKGYFPEPVTLTWNSGSLSSGVHTFPAVLQSDLYTLSSSVTVTSSTWPSQSITCNVAHPASSTKVDKKIEPRGPTIKPCPPCKCPAPNLLGGPDVFIFPPKIKDVLYISLEPIVTCVVVDVSEDDPDVQISWFVNNVEVHTAQTQTHREDYNSTLRVVSALPIQHQDWMSGKEFKCKVNNDDYPAPIERTISKPKGSVRAPQVYVLPPPEEEMTKKQVTLTCMVTDFMPEDIYVEWTNNGKTELNYKNTEPVLDSDGSYFMYSKLRVEKKNWVERNSYSCSVVHEGLKFHHTTKSFSRTPGK
light: DIQMTQSPSSLSASVGDSVTITCQASTDISSHLNWYQQKPGKAPELLIYYGSHLLSGVPSRFSGSGSGTDFTFTISSLEAEDAATYYCGQGNRLPYTFGQGTKVEIERADAAPTVSIFPPSSEQLTSGGASVVCFLNNFYPKDINVKWKIDGSERQNGVLNSWTDQDSKDSTYSMSSTLTLTKDEYERHNSYTCEATHKTSTSPIVKSFNRNEC
notes: VH3-mFa30 with VL3-mCK; copies: 2 + 2
B8: the Kd with mouse FcRn is 3.5 nM; in experiment [3], 0.99 nM; in experiment [4] it was 8.1 nM; in experiment [5], 5.3 nM; in experiment [6], 19 nM.
